Test [1] addresses human 4-1BB full length, on the cell surface (human) (UniProt Q07011). In words: FACS competition, CHO-K1-hu4-1BB; labelled Bio-4-1BBL 2 µg/ml fixed, competitor varied.
Test [2] shares this target. Nature of the test: FACS competition, CHO-K1-hu4-1BB; labelled Bio-Hanke10F4 1.5 µg/ml fixed, competitor varied.
For test [3], the target named is Human 4-1BB + Mouse 4-1BB domain2B,3A,3B(aa64-118) (human; mouse) (UniProt Q07011). Nature of the test: FACS, transiently transfected Expi293 cells (cell B). For orientation: Flow cytometry measures light scatter and fluorescence of single cells or particles in a stream.
Test [4] addresses Human 4-1BB + Mouse 4-1BB domain1,2A,2B(aa24-86) (human; mouse). Nature of the test: FACS, transiently transfected Expi293 cells (cell A).
Test [5] addresses human 4-1BB full length, on the cell surface (human) (UniProt Q07011). In words: FACS, transiently transfected Expi293 cells (WT).
For test [6], the target named is Human 4-1BB + Mouse 4-1BB domain4A,4B,NF(aa119-186) (human; mouse). Nature of the test: FACS, transiently transfected Expi293 cells (cell E).
Test [7] addresses Human 4-1BB + Mouse 4-1BB domain3B,4A,4B(aa97-159) (human; mouse) (UniProt Q07011). Nature of the test: FACS, transiently transfected Expi293 cells (cell D).
The target in test [8] is Human 4-1BB + Mouse 4-1BB domain1,4B,NF(aa24-46,aa139-186) (human; mouse). Nature of the test: FACS, transiently transfected Expi293 cells (cell F).
Test [9] deals with h4-1BB-His antigen (Acro company, product number: Q07011-1) (human) (UniProt Q07011). Nature of the test: BLI (Fortebio), h4-1BB-His.
Test [10] has as its target Human 4-1BB + Mouse 4-1BB domain3A,3B,4A(aa87-133) (human; mouse) (UniProt Q07011). In words: FACS, transiently transfected Expi293 cells (cell C).

The source of these data is patent publication US20220411523A1.

Urelumab (antibody), sequence (VH): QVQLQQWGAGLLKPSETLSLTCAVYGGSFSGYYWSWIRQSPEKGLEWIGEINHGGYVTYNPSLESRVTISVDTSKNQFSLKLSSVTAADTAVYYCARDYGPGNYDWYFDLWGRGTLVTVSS
Urelumab (antibody), sequence (VL): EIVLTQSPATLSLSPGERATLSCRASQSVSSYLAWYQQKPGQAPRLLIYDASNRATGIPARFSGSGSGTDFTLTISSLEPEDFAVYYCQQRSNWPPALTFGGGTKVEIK
human 4-1BBL-hIgG (Fc fusion), sequence (chain, part): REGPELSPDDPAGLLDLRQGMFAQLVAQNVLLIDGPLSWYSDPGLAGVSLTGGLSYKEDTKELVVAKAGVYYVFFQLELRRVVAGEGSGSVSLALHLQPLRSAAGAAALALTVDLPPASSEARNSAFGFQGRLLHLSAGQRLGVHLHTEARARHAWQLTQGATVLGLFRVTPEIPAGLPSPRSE
human 4-1BB full length, on the cell surface (human), sequence (Q07011 24-255 limits assumed): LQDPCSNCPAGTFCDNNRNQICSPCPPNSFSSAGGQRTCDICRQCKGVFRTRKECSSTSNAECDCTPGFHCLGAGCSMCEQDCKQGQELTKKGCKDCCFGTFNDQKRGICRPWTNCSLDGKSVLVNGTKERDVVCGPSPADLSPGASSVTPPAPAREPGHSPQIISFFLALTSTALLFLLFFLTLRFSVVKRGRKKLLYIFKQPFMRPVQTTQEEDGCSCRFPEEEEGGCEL
Human 4-1BB + Mouse 4-1BB domain1,2A,2B(aa24-86) (human; mouse), sequence (chain, as listed by the source): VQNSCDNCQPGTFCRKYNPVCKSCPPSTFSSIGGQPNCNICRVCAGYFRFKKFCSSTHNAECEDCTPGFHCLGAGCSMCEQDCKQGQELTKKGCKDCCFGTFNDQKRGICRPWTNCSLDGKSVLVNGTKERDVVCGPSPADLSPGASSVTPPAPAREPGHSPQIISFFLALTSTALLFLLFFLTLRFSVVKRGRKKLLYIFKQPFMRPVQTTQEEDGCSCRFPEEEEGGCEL
Human 4-1BB + Mouse 4-1BB domain4A,4B,NF(aa119-186) (human; mouse), sequence (chain, as listed by the source): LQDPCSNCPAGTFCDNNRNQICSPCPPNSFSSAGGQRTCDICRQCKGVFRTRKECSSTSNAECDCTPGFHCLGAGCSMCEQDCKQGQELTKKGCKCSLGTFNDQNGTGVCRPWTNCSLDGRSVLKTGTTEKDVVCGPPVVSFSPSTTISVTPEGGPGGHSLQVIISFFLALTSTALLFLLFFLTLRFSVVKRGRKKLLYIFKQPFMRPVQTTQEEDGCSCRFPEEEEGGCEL
Human 4-1BB + Mouse 4-1BB domain1,4B,NF(aa24-46,aa139-186) (human; mouse), sequence (chain, as listed by the source): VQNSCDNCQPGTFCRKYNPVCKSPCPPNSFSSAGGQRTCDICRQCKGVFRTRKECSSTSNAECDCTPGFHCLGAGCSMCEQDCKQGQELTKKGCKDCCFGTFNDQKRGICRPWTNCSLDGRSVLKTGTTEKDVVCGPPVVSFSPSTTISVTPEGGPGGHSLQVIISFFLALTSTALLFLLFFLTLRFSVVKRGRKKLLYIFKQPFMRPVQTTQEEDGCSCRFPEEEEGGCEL
Human 4-1BB + Mouse 4-1BB domain3B,4A,4B(aa97-159) (human; mouse), sequence (Q07011 other isoform, or with tags, fused parts or gaps): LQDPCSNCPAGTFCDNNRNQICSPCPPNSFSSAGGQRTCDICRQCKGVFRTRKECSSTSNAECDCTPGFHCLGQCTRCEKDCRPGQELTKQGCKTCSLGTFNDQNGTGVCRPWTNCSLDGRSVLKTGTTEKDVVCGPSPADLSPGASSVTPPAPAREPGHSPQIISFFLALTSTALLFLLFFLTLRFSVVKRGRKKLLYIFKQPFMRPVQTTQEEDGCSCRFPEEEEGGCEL
h4-1BB-His antigen (Acro company, product number: Q07011-1) (human), sequence (Q07011 24-186): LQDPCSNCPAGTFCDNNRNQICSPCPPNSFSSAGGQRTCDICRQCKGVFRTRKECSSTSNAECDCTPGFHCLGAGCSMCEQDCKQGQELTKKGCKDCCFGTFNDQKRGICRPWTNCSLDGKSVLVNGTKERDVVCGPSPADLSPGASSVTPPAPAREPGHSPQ
Human 4-1BB + Mouse 4-1BB domain3A,3B,4A(aa87-133) (human; mouse), sequence (Q07011 other isoform, or with tags, fused parts or gaps): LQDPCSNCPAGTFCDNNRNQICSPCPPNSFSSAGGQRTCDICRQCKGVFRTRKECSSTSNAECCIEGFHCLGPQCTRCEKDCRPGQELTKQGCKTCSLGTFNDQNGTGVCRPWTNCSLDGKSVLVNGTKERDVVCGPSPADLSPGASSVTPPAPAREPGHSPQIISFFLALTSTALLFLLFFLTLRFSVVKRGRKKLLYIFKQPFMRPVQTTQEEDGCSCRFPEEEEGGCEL
Human 4-1BB + Mouse 4-1BB domain2B,3A,3B(aa64-118) (human; mouse), sequence (Q07011 other isoform, or with tags, fused parts or gaps): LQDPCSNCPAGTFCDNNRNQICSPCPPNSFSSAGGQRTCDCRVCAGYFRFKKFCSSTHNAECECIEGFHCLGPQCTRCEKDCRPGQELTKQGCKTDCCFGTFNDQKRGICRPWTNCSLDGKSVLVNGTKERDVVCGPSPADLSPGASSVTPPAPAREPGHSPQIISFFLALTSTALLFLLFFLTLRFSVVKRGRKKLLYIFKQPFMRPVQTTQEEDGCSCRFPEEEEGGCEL

As for human 4-1BBL-hIgG (Fc fusion), in test [1], the FACS signal of Bio-4-1BBL at (B:A) Ratio 0.03906 was 7740, the FACS signal of Bio-4-1BBL at (B:A) Ratio 0.15625 stood at 7910, the FACS signal of Bio-4-1BBL at (B:A) Ratio 0.625 stood at 6850 and the FACS signal of Bio-4-1BBL at (B:A) Ratio 2.5 was found to be 6320. Further, in test [1], the FACS signal of Bio-4-1BBL at (B:A) Ratio 10 was 3770 and the FACS signal of Bio-4-1BBL at (B:A) Ratio 40 came to 3220. Moreover, in [2], the FACS signal of Bio-Hanke10F4 at (B:A) Ratio 0.058593 was 6310, the FACS signal of Bio-Hanke10F4 at (B:A) Ratio 0.23437 stood at 6580, the FACS signal of Bio-Hanke10F4 at (B:A) Ratio 0.9375 was 4860 and the FACS signal of Bio-Hanke10F4 at (B:A) Ratio 3.75 worked out at 2290. For the same substance, in [2], the FACS signal of Bio-Hanke10F4 at (B:A) Ratio 15 worked out at 584 and the FACS signal of Bio-Hanke10F4 at (B:A) Ratio 60 worked out at 254.
In general, Kd refers to the constant that tells how readily two partners part at equilibrium. Consider Urelumab (antibody), for which the Mean fluorescence intensity in test [3] came to 313000; in [4], 1820; in test [5], 146000; in test [6] it was 194000; in [7] it was 123000; in test [8], 4910. In test [10], the Mean fluorescence intensity is 193000. Also, the Kd in test [9] turned out to be 5.76 nM.
Regarding Utomilumab (antibody), in [4], the Mean fluorescence intensity worked out at 19000.
